Results reported in patent US20160368985A1.
Residue numbers refer to the chain shown, from its start. Names may count otherwise. Values belong to the binder of their own block, whether it stands above or below them.

How the values were obtained:
[1] = target: T1, soluble human FcRH5 protein fragment (human) (UniProt Q96RD9); assay: SPR screening, human IgG capture
T1 sequence: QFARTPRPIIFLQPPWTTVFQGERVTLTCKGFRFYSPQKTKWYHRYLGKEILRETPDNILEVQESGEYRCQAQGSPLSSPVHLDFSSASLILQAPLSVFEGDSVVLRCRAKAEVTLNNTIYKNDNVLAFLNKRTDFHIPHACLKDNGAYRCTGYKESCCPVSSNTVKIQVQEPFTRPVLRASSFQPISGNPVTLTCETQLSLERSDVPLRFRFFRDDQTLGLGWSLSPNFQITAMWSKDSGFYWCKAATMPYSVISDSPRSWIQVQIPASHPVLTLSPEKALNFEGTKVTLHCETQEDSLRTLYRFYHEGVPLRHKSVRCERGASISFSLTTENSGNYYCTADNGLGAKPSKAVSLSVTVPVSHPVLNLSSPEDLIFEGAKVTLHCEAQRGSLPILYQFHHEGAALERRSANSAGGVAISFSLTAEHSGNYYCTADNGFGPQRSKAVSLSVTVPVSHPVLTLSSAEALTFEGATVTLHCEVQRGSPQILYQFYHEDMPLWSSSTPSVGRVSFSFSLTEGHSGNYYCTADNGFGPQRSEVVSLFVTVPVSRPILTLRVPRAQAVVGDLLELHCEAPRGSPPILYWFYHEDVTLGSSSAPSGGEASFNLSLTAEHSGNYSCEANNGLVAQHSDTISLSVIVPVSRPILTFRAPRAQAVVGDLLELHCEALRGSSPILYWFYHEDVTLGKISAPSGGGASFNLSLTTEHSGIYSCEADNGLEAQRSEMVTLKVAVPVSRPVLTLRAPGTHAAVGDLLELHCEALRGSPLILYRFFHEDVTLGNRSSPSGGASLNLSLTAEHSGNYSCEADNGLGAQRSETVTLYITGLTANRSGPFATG

[2] = target: T2, soluble cynomolgus FcRH5 protein fragment (cynomolgus monkey); assay: BIACORE
T2 sequence: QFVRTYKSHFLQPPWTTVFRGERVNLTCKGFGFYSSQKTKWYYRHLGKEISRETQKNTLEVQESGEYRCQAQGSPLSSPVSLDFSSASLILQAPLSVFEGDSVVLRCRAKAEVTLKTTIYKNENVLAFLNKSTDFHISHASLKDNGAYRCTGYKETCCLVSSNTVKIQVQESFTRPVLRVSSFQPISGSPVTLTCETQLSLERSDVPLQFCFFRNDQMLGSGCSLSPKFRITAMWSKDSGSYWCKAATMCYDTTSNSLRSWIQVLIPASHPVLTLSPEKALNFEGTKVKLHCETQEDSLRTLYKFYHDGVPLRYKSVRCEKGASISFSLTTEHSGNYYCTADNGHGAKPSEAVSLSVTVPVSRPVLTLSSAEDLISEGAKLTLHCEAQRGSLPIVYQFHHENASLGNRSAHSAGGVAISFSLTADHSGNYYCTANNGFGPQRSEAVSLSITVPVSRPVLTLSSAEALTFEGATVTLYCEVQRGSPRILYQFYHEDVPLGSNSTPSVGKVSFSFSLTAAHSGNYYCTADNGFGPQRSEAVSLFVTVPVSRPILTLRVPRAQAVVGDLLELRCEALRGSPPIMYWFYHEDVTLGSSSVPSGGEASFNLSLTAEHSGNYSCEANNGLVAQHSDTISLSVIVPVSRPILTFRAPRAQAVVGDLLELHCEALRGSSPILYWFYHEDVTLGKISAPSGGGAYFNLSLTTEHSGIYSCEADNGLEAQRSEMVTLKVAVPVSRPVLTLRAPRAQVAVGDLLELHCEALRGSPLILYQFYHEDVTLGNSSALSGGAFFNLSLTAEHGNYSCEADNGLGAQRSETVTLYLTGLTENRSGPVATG

[3] = target: T2, soluble cynomolgus FcRH5 protein fragment (cynomolgus monkey); assay: SPR, human IgG capture, 1:1 model
[4] = target: T2, soluble cynomolgus FcRH5 protein fragment (cynomolgus monkey); assay: BIACORE, hIgG capture, 1:1 model, monovalent

B1: hu1G7.v1 heavy chain W52F + light chain of hu1G7.v1.6 (antibody, part only; not given: hu1G7.v1.6 light chain, V domains shown, part only)
VH: EVQLVESGPGLVKPSETLSLTCTVSGFSLTRFGVHWVRQPPGKGLEWLGVIFRGGSTDYNAAFMSRLTISKDNSKNQVSLKLSSVTAADTAVYYCSNHYYGSSDYALDNWGQGTLVTVSS
Kd [1]: 81 nM

B2: hu1G7.v93/38E4.v1 TDB (bispecific antibody, V domains shown)
VH 1: B1 VH with L29T, F52W, M64V, S103P
VL 1: DIQMTQSPSSLSASVGDRVTITCKASQDVSNLVVWFQQKPGKAPKLLIYSGSYRYSGVPSRFSGSGSGTDFTLTISSLQPEDFATYYCQQHYSPPYTFGQGTKVEIK
VH 2: EVQLVQSGAEVKKPGASVKVSCKASGFTFTSYYIHWVRQAPGQGLEWIGWIYPENDNTKYNEKFKDRVTITADTSTSTAYLELSSLRSEDTAVYYCARDGYSRYYFDYWGQGTLVTVSS
VL 2: DIVMTQSPDSLAVSLGERATINCKSSQSLLNSRTRKNYLAWYQQKPGQSPKLLIYWTSTRKSGVPDRFSGSGSGTDFTLTISSLQAEDVAVYYCKQSFILRTFGQGTKVEIK
Kd [2]: 8.1 nM

B3: hu1G7.v1 heavy chain W52H + light chain of hu1G7.v1.6 (antibody, part only; not given: hu1G7.v1.6 light chain, V domains shown, part only)
VH: B1 VH with F52H
Kd [1]: 110 nM

B5: hu1G7.v85/38E4.v1 TDB (bispecific antibody, V domains shown)
VH 1: B1 VH with F52W, M64V
VL 1: B2 VL 1 with S30R
VH 2: B2 VH 2
VL 2: B2 VL 2
Kd [2]: 7.8 nM
Kd [3]: 6.8 nM
koff [3]: 0.0008 s⁻¹
kon [3]: 100000 M⁻¹ s⁻¹
Kd [4]: 6.76 nM

B8: hu1G7.v1 heavy chain W52L + light chain of hu1G7.v1.6 (antibody, part only; not given: hu1G7.v1.6 light chain, V domains shown, part only)
VH: B1 VH with F52L
Kd [1]: 250 nM

B9: hu1G7.v1 heavy chain W52Y + light chain of hu1G7.v1.6 (antibody, part only; not given: hu1G7.v1.6 light chain, V domains shown, part only)
VH: B1 VH with F52Y
Kd [1]: 530 nM

Second part, the binder after the results:

Kd [1]: 2.7 nM
B4: hu1G7.v1 heavy chain M64I + light chain of hu1G7.v1.6 (antibody, part only; not given: hu1G7.v1.6 light chain, V domains shown, part only)
VH: B1 VH with F52W, M64I

Kd [1]: 2.7 nM
B6: hu1G7.v1 heavy chain M64V + light chain of hu1G7.v1.6 (antibody, part only; not given: hu1G7.v1.6 light chain, V domains shown, part only)
VH: B1 VH with F52W, M64V

Kd [1]: 2.6 nM
B7: hu1G7.v1 heavy chain M64F + light chain of hu1G7.v1.6 (antibody, part only; not given: hu1G7.v1.6 light chain, V domains shown, part only)
VH: B1 VH with F52W, M64F
